Source: patent US20210139548A1 (published 2021)
Each block holds one binder with its values, some of them ahead of it. *1 amine or outer side, *2 acyl side, *3 side chain or, on linkers, in order; H or OH if unused. Side-chain parts run from the residue outwards. The star is where a group is joined. C18 diacid = O=C(O)CCCCCCCCCCCCCCCCC(=O)*; γGlu = O=C(O)[C@H](CCC(=O)[*:2])N[*:1]; Isovaleryl = CC(C)CC(=O)*; AEEA = NCCOCCOCC(=O)O

Target: T1, human neuropeptide Y2 receptor (human, UniProt P49146 1-381)
T1 construct: whole, on cells; also called hNPY2 receptor; hNPY2-R
T1 sequence (looked up): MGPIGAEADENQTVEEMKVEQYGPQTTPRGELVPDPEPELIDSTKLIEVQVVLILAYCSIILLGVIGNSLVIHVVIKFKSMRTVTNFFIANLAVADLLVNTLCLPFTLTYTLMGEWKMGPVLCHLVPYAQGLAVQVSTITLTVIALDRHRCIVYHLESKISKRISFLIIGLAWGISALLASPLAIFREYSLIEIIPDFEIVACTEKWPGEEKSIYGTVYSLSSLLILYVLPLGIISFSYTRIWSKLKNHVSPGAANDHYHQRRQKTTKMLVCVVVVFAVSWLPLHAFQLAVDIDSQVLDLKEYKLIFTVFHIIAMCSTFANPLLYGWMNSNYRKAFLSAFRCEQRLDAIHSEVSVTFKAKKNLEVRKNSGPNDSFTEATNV
Test: radioligand competition (125I-PYY(1-36)), hNPY2R membranes
How it was run: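 Commercial human Y2 receptor membranes (0.5 μg protein/well) were incubated with peptide for 2 h at room temperature in 50 mM HEPES, 5 mM MgCl₂, 1 mM CaCl₂, pH 7.4, with 0.2% ovalbumin. Bound radioligand was separated on PEI-soaked GF/C filters and counted by scintillation, and IC₅₀ came from nonlinear sigmoidal regression.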

B1: Compound 124 (peptide)
peptide: Isovaleryl-APEK([AEEA-AEEA-γGlu-C18 diacid])PEEDAAPEEIQRYYVSLRHYYNWLTRQRY-NH2
SMILES: CC[C@H](C)[C@H](NC(=O)[C@H](CCC(=O)O)NC(=O)[C@H](CCC(=O)O)NC(=O)[C@@H]1CCCN1C(=O)[C@H](C)NC(=O)[C@H](C)NC(=O)[C@H](CC(=O)O)NC(=O)[C@H](CCC(=O)O)NC(=O)[C@H](CCC(=O)O)NC(=O)[C@@H]1CCCN1C(=O)[C@H](CCCCNC(=O)COCCOCCNC(=O)COCCOCCNC(=O)CC[C@H](NC(=O)CCCCCCCCCCCCCCCCC(=O)O)C(=O)O)NC(=O)[C@H](CCC(=O)O)NC(=O)[C@@H]1CCCN1C(=O)[C@H](C)NC(=O)CC(C)C)C(=O)N[C@@H](CCC(N)=O)C(=O)N[C@@H](CCCNC(=N)N)C(=O)N[C@@H](Cc1ccc(O)cc1)C(=O)N[C@@H](Cc1ccc(O)cc1)C(=O)N[C@H](C(=O)N[C@@H](CO)C(=O)N[C@@H](CC(C)C)C(=O)N[C@@H](CCCNC(=N)N)C(=O)N[C@@H](Cc1c[nH]cn1)C(=O)N[C@@H](Cc1ccc(O)cc1)C(=O)N[C@@H](Cc1ccc(O)cc1)C(=O)N[C@@H](CC(N)=O)C(=O)N[C@@H](Cc1c[nH]c2ccccc12)C(=O)N[C@@H](CC(C)C)C(=O)N[C@H](C(=O)N[C@@H](CCCNC(=N)N)C(=O)N[C@@H](CCC(N)=O)C(=O)N[C@@H](CCCNC(=N)N)C(=O)N[C@@H](Cc1ccc(O)cc1)C(N)=O)[C@@H](C)O)C(C)C
Ki: 0.5 nM

B4: Compound 126 (peptide)
peptide: Isovaleryl-APAK([AEEA-AEEA-γGlu-C18 diacid])PEEDSSPEELQRYYVSLRHYYNWLTRQRY-NH2
SMILES: CC(C)CC(=O)N[C@@H](C)C(=O)N1CCC[C@H]1C(=O)N[C@@H](C)C(=O)N[C@@H](CCCCNC(=O)COCCOCCNC(=O)COCCOCCNC(=O)CC[C@H](NC(=O)CCCCCCCCCCCCCCCCC(=O)O)C(=O)O)C(=O)N1CCC[C@H]1C(=O)N[C@@H](CCC(=O)O)C(=O)N[C@@H](CCC(=O)O)C(=O)N[C@@H](CC(=O)O)C(=O)N[C@@H](CO)C(=O)N[C@@H](CO)C(=O)N1CCC[C@H]1C(=O)N[C@@H](CCC(=O)O)C(=O)N[C@@H](CCC(=O)O)C(=O)N[C@@H](CC(C)C)C(=O)N[C@@H](CCC(N)=O)C(=O)N[C@@H](CCCNC(=N)N)C(=O)N[C@@H](Cc1ccc(O)cc1)C(=O)N[C@@H](Cc1ccc(O)cc1)C(=O)N[C@H](C(=O)N[C@@H](CO)C(=O)N[C@@H](CC(C)C)C(=O)N[C@@H](CCCNC(=N)N)C(=O)N[C@@H](Cc1c[nH]cn1)C(=O)N[C@@H](Cc1ccc(O)cc1)C(=O)N[C@@H](Cc1ccc(O)cc1)C(=O)N[C@@H](CC(N)=O)C(=O)N[C@@H](Cc1c[nH]c2ccccc12)C(=O)N[C@@H](CC(C)C)C(=O)N[C@H](C(=O)N[C@@H](CCCNC(=N)N)C(=O)N[C@@H](CCC(N)=O)C(=O)N[C@@H](CCCNC(=N)N)C(=O)N[C@@H](Cc1ccc(O)cc1)C(N)=O)[C@@H](C)O)C(C)C
Ki: 1.18 nM

B5: Compound 130 (peptide)
peptide: Isovaleryl-APEK([AEEA-AEEA-γGlu-C18 diacid])PEEDTSAEELQRYYVSLRHYYNWLTRQRY-NH2
SMILES: CC(C)CC(=O)N[C@@H](C)C(=O)N1CCC[C@H]1C(=O)N[C@@H](CCC(=O)O)C(=O)N[C@@H](CCCCNC(=O)COCCOCCNC(=O)COCCOCCNC(=O)CC[C@H](NC(=O)CCCCCCCCCCCCCCCCC(=O)O)C(=O)O)C(=O)N1CCC[C@H]1C(=O)N[C@@H](CCC(=O)O)C(=O)N[C@@H](CCC(=O)O)C(=O)N[C@@H](CC(=O)O)C(=O)N[C@H](C(=O)N[C@@H](CO)C(=O)N[C@@H](C)C(=O)N[C@@H](CCC(=O)O)C(=O)N[C@@H](CCC(=O)O)C(=O)N[C@@H](CC(C)C)C(=O)N[C@@H](CCC(N)=O)C(=O)N[C@@H](CCCNC(=N)N)C(=O)N[C@@H](Cc1ccc(O)cc1)C(=O)N[C@@H](Cc1ccc(O)cc1)C(=O)N[C@H](C(=O)N[C@@H](CO)C(=O)N[C@@H](CC(C)C)C(=O)N[C@@H](CCCNC(=N)N)C(=O)N[C@@H](Cc1c[nH]cn1)C(=O)N[C@@H](Cc1ccc(O)cc1)C(=O)N[C@@H](Cc1ccc(O)cc1)C(=O)N[C@@H](CC(N)=O)C(=O)N[C@@H](Cc1c[nH]c2ccccc12)C(=O)N[C@@H](CC(C)C)C(=O)N[C@H](C(=O)N[C@@H](CCCNC(=N)N)C(=O)N[C@@H](CCC(N)=O)C(=O)N[C@@H](CCCNC(=N)N)C(=O)N[C@@H](Cc1ccc(O)cc1)C(N)=O)[C@@H](C)O)C(C)C)[C@@H](C)O
Ki: 11.1 nM

Continued, values first:

Ki: 2.31 nM
B2: Compound 133 (peptide)
peptide: Isovaleryl-APEK([AEEA-AEEA-γGlu-C18 diacid])PEEDASPEEVQRYYVELRHYYNWLTRQRY-NH2
SMILES: CC(C)CC(=O)N[C@@H](C)C(=O)N1CCC[C@H]1C(=O)N[C@@H](CCC(=O)O)C(=O)N[C@@H](CCCCNC(=O)COCCOCCNC(=O)COCCOCCNC(=O)CC[C@H](NC(=O)CCCCCCCCCCCCCCCCC(=O)O)C(=O)O)C(=O)N1CCC[C@H]1C(=O)N[C@@H](CCC(=O)O)C(=O)N[C@@H](CCC(=O)O)C(=O)N[C@@H](CC(=O)O)C(=O)N[C@@H](C)C(=O)N[C@@H](CO)C(=O)N1CCC[C@H]1C(=O)N[C@@H](CCC(=O)O)C(=O)N[C@@H](CCC(=O)O)C(=O)N[C@H](C(=O)N[C@@H](CCC(N)=O)C(=O)N[C@@H](CCCNC(=N)N)C(=O)N[C@@H](Cc1ccc(O)cc1)C(=O)N[C@@H](Cc1ccc(O)cc1)C(=O)N[C@H](C(=O)N[C@@H](CCC(=O)O)C(=O)N[C@@H](CC(C)C)C(=O)N[C@@H](CCCNC(=N)N)C(=O)N[C@@H](Cc1c[nH]cn1)C(=O)N[C@@H](Cc1ccc(O)cc1)C(=O)N[C@@H](Cc1ccc(O)cc1)C(=O)N[C@@H](CC(N)=O)C(=O)N[C@@H](Cc1c[nH]c2ccccc12)C(=O)N[C@@H](CC(C)C)C(=O)N[C@H](C(=O)N[C@@H](CCCNC(=N)N)C(=O)N[C@@H](CCC(N)=O)C(=O)N[C@@H](CCCNC(=N)N)C(=O)N[C@@H](Cc1ccc(O)cc1)C(N)=O)[C@@H](C)O)C(C)C)C(C)C

Ki: 1.18 nM
B3: Compound 132 (peptide)
peptide: Isovaleryl-APEK([AEEA-AEEA-γGlu-C18 diacid])PEEDASPEELQKYYVTLRHYYNWLTRQRY-NH2
SMILES: CC(C)CC(=O)N[C@@H](C)C(=O)N1CCC[C@H]1C(=O)N[C@@H](CCC(=O)O)C(=O)N[C@@H](CCCCNC(=O)COCCOCCNC(=O)COCCOCCNC(=O)CC[C@H](NC(=O)CCCCCCCCCCCCCCCCC(=O)O)C(=O)O)C(=O)N1CCC[C@H]1C(=O)N[C@@H](CCC(=O)O)C(=O)N[C@@H](CCC(=O)O)C(=O)N[C@@H](CC(=O)O)C(=O)N[C@@H](C)C(=O)N[C@@H](CO)C(=O)N1CCC[C@H]1C(=O)N[C@@H](CCC(=O)O)C(=O)N[C@@H](CCC(=O)O)C(=O)N[C@@H](CC(C)C)C(=O)N[C@@H](CCC(N)=O)C(=O)N[C@@H](CCCCN)C(=O)N[C@@H](Cc1ccc(O)cc1)C(=O)N[C@@H](Cc1ccc(O)cc1)C(=O)N[C@H](C(=O)N[C@H](C(=O)N[C@@H](CC(C)C)C(=O)N[C@@H](CCCNC(=N)N)C(=O)N[C@@H](Cc1c[nH]cn1)C(=O)N[C@@H](Cc1ccc(O)cc1)C(=O)N[C@@H](Cc1ccc(O)cc1)C(=O)N[C@@H](CC(N)=O)C(=O)N[C@@H](Cc1c[nH]c2ccccc12)C(=O)N[C@@H](CC(C)C)C(=O)N[C@H](C(=O)N[C@@H](CCCNC(=N)N)C(=O)N[C@@H](CCC(N)=O)C(=O)N[C@@H](CCCNC(=N)N)C(=O)N[C@@H](Cc1ccc(O)cc1)C(N)=O)[C@@H](C)O)[C@@H](C)O)C(C)C

Ki: 8.54 nM
B6: Compound 131 (peptide)
peptide: Isovaleryl-APEK([AEEA-AEEA-γGlu-C18 diacid])AEEDASPEELQRYYVELRHYYNWLTRQRY-NH2
SMILES: CC(C)CC(=O)N[C@@H](C)C(=O)N1CCC[C@H]1C(=O)N[C@@H](CCC(=O)O)C(=O)N[C@@H](CCCCNC(=O)COCCOCCNC(=O)COCCOCCNC(=O)CC[C@H](NC(=O)CCCCCCCCCCCCCCCCC(=O)O)C(=O)O)C(=O)N[C@@H](C)C(=O)N[C@@H](CCC(=O)O)C(=O)N[C@@H](CCC(=O)O)C(=O)N[C@@H](CC(=O)O)C(=O)N[C@@H](C)C(=O)N[C@@H](CO)C(=O)N1CCC[C@H]1C(=O)N[C@@H](CCC(=O)O)C(=O)N[C@@H](CCC(=O)O)C(=O)N[C@@H](CC(C)C)C(=O)N[C@@H](CCC(N)=O)C(=O)N[C@@H](CCCNC(=N)N)C(=O)N[C@@H](Cc1ccc(O)cc1)C(=O)N[C@@H](Cc1ccc(O)cc1)C(=O)N[C@H](C(=O)N[C@@H](CCC(=O)O)C(=O)N[C@@H](CC(C)C)C(=O)N[C@@H](CCCNC(=N)N)C(=O)N[C@@H](Cc1c[nH]cn1)C(=O)N[C@@H](Cc1ccc(O)cc1)C(=O)N[C@@H](Cc1ccc(O)cc1)C(=O)N[C@@H](CC(N)=O)C(=O)N[C@@H](Cc1c[nH]c2ccccc12)C(=O)N[C@@H](CC(C)C)C(=O)N[C@H](C(=O)N[C@@H](CCCNC(=N)N)C(=O)N[C@@H](CCC(N)=O)C(=O)N[C@@H](CCCNC(=N)N)C(=O)N[C@@H](Cc1ccc(O)cc1)C(N)=O)[C@@H](C)O)C(C)C
